From article PMC12013497

Molecular target: wild-type Bacteroides fragilis glutamate decarboxylase (BfGADWT) (Bacteroides fragilis)
Assay: SEC

stoichiometry N: 6
Substance: wild-type Bacteroides fragilis glutamate decarboxylase (BfGADWT) (enzyme)
